The values below come from paper PMC3919625 (Cell reports, 2013).

The target in this experiment is gp120 from HIV-1 strain SF162 (clade B) (HIV-1 group M subtype B, isolate SF162, UniProt P19550, strain). In words: SPR. (In general: Surface plasmon resonance follows binding to a sensor surface in real time, without labels.)

B1: 2G12 IgG monomer (antibody, V domains shown)
VH: EVQLVESGGGLVKAGGSLILSCGVSNFRISAHTMNWVRRVPGGGLEWVASISTSSTYRDYADAVKGRFTVSRDDLEDFVYLQMHKMRVEDTAIYYCARKGSDRLSDNDPFDAWGPGTVVTVSP
VL: VVMTQSPSTLSASVGDTITITCRASQSIETWLAWYQQKPGKAPKLLIYKASTLKTGVPSRFSGSGSGTEFTLTISGLQFDDFATYHCQHYAGYSATFGQGTRVEIK
Turning to B1, the binding result was “binds”.

B2: 2G12 IgG dimer (antibody, V domains shown)
VH: B1 VH
VL: B1 VL
For the molecule B2, the binding result is reported as “binds”.
